Residue numbers refer to the chain shown, from its start.
Assays:
[1] = target: T1, hiR2-FL-K525A-T7 (human, UniProt Q6PJF5 1-856); assay: FACS on MEF-DKO cells expressing the variant, 3 µg/ml antibody
T1 sequence: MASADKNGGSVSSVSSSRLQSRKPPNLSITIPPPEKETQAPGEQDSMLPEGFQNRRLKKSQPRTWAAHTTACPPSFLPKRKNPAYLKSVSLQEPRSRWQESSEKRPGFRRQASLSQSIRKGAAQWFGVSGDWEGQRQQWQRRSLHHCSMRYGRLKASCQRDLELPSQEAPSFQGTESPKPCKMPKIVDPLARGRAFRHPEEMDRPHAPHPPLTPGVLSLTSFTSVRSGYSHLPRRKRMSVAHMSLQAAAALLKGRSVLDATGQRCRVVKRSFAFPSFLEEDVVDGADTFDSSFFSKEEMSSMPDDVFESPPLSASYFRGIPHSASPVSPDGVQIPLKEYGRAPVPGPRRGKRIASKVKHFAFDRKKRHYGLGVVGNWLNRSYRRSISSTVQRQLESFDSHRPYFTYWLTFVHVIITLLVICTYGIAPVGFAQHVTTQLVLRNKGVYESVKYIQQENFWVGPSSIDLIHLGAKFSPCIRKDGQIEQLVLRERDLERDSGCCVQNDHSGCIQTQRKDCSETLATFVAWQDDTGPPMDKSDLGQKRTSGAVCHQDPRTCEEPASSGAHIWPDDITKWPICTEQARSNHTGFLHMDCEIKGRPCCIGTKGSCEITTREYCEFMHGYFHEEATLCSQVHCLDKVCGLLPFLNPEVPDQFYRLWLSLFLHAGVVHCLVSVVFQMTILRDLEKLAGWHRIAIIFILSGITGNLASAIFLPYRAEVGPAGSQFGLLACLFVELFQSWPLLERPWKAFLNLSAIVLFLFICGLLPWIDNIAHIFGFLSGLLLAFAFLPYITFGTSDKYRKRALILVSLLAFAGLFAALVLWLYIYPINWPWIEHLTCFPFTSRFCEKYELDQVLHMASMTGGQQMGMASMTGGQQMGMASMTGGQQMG
How it was run: (§1)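 Cells were stained with purified antibody at 3 μg/ml in FACS buffer for 1 hour on ice, with buffer-only controls. Bound antibody was detected with PE-conjugated goat anti-mouse IgG F(ab′)2 at 1:100, 1 hour on ice in the dark, followed by flow cytometry.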

[2] = target: T2, hiR2-FL-H590A-T7 (human, UniProt Q6PJF5 1-856); assay: as above
T2 sequence: T1 sequence with A525K, H590A
How it was run: as §1

B1: antibody 48 (antibody, V domains shown)
VH: QVQLQQSGTELVRPGTSVKVSCKASGYAFTNYLIEWVKQRPGQGLEWIGVINPGSGFTKYNEKFKGKATLTADKSSSTVYMHLSSLTSEDSAVYFCARGLYRAMDYWGQGTSVTVSS
VL: DIQMTQSPASQSASLGESVTITCLASQTIATWLAWYQQKPGKSPQLLIYGATTLADGVPSRFSGGGSGTKFSFKISSLQAEDFVSYYCQQLYSTPYTFGGGTKLEIK
notes: mouse IgG, kappa light chain; also called clone #48; purified antibody 48
**Q.** How did the “loss of binding vs wild type” value [1] turn out when B1 was run?
**A.** ≥ 30%

**Q.** What about the “loss of binding vs wild type” value [2] of the same binder?
**A.** ≥ 30%

Source: US20240287172A1 (SCIRHOM, published 2024)
